One assay has as its system T-cell. The conditions noted are these: response to SDF-1; cited from earlier work.
A further assay has as its system human neutrophils. The assay is described as follows: Effect of signaling pathway inhibitors on directional neutrophil migration in IL-8 gradients (microfluidic device). To be noted: pretreated cells; IL-8 gradients in which chemotaxis and fugetaxis were seen. The class given is cell-based. An excerpt: Microfluidic Migration Assay and Timelapse Microscopy: Neutrophils (1×10^3 cells) were placed uniformly across the migration channel and allowed to migrate under a linear gradient of human Interleukin-8 (72 a.a.; PeproTech, Rocky Hill, N.J.) in IMDM with 0.5% (w/v) FCS flowing at 0.1 mm/sec. […] Brightfield images were taken every 30 seconds using a C4742-95 Hamamatsu digital camera (Hamamatsu, Japan) controlled by IPLab 3.6.1 (Scanalytics, Fairfax, Va.). Cell movement was always observed at a set point along the migration channel. Gradients were also calibrated at this set point. Migration was quantified for all cells across the gradient.
Signaling Pathway Inhibitors: Cells were treated with pertussis toxin (100 ng/mL; 30 minutes at 37° C.), wortmannin (1 μM, 10 μM; 20 minutes at 37° C., 8-Br-cAMP (1 mM; 15 minutes at room temperature), 8-Br-cGMP (1 mM; 15 minutes at room temperature) (Sigma-Aldrich), or the CXCR2 non-peptide antagonist, SB225002 (1 pM, 100 pM, 1 nM, or 1 μM for 15 minutes at 37° C.; Calbiochem, Calif.). Immediately after treatment cells were seeded in migration channel of the microfluidic device and allowed to migrate as described above.
Since receptor occupancy is known to play a role in directional decision making and gradient sensing in the context of chemotaxing eukaryotic cells, it was postulated that chemokine receptor occupancy by a chemokine might also play a critical role in the decision of a cell to move up or down a chemokine gradient. Thus, a SB25002, the specific non-peptide antagonist of the IL-8 receptor, CXCR2 was utilized to examine this postulate. Neutrophils were pretreated with SB225002 at concentrations between 1 pM and 1 μM and then exposed to 0 to 1.2 μM gradients of IL-8 in microfabricated devices as described above. Videos of cell migration were analysed using MetaMorph and MathLab software to generate normalized angular frequencies determined for cells migrating in each of the three sectors of the gradient. The absence of inhibitor generates a normalized angular frequency of 1.0 whereas inhibition of fugetactic or chemotactic angular frequencies results in a normalized frequency of <1.0 and augmentation of either directional response results in a value greater than 1. This analysis allows to precisely quantitate the effect of a given concentration of inhibitor on the directional decision of the cell to move up or down a gradient. […] Furthermore, although IL-8 binds to both CXCR2 and CXCR1 on the cell surface, of the human neutrophil bi-directional signaling was evidently critically dependent on CXCR2.
It had been previously shown that the signaling pathway for chemotaxis is distinct from that for chemorepulsion or fugetaxis. […] The study of neutrophil migration in microfabricated devices allows to examine precisely the effects of these inhibitors on quantitative parameters of cell migration including the directional bias of cells in the context of precisely defined and stable chemokine gradients. Primary human neutrophils were pretreated with known inhibitors of the chemokine signal transduction pathway including pertussis toxin, wortmannin, genistein, 8-Br-cAMP and 8-Br-cGMP and then exposed to IL-8 gradients in which chemotaxis and fugetaxis were seen. The effect of the inhibitor on directional migration towards or away from the chemokine was quantitated by determining the directional motility index of cells migrating in the context of these gradients. Movement vector angles corresponding to movement up the gradient (30 to 150 degrees—see FIG. 13) were defined as chemotactic and measured movement vector angles corresponding to movement down the gradient (210 to 330 degrees—see figure) were defined as fugetactic. The directional choice of cells to move up or down a chemokine gradient were therefore compared in the presence and the absence of an inhibitor. […]

The next assay deals with rat neutrophils. The assay is described as follows: Intravital microscopy of rat neutrophil migration in response to diffusive CINC-1 gradients in mesentery. The class given is in vivo. Here is the method:
Intravital Microscopy: Male Sprague Dawley rats (200-300 g) were purchased from Harlan-Olac (Bicester, U.K.). Male rats were prepared for intravital microscopy. Briefly, following sedation with i.m. Hypnorm (fentanyl-fluanisone mixture, 0.1 ml; Janssen-Cilag, High Wycombe, U.K.), animals were anesthetized with i.v. sodium pentobarbitone (30 mg/kg loading dose followed by 30 mg/kg/h; Rhône Mérieux, Harlow, U.K). The animals were maintained at 37° C. on a custom-built heated microscope stage. Following midline abdominal incision, the mesentery adjoining the terminal ileum was carefully arranged over a glass window in the microscope stage and pinned in position. The mesentery was kept warm and moist by continuous application of Tyrode's balanced salt solution (Sigma Aldrich). Mesenteric post-capillary venules (15-40 μm in diameter) were viewed on an upright fixed-stage microscope (Axioskop F S, Carl Zeiss, Welwyn Garden City, U.K.) fitted with water immersion objectives. Images were captured with a digital camera (C5810-01, Hamamatsu Photonics U.K., Enfield, U.K.) for viewing on a monitor (PVM-1453 MD, Sony U.K., Weybridge, U.K.) and storage by videocassette recorder (AG-MD830E, Panasonic U.K., Bracknell, U.K.). […] Firmly adherent leukocytes were defined as those that remained stationary for at least 30 s within a 100-μm segment of a venule. Extravasated leukocytes were defined as those in the perivenular tissue adjacent to, but remaining within a distance of 150 μm of a 100-μm length of vessel segment under study. After baseline readings of rolling, adhesion and transmigration were taken; CINC-1 at final concentrations of 10^−9 M, […] or 10^−7M (Peprotech) was applied topically to the mesenteric tissue in the superfusion buffer. Leukocyte responses within the chosen vessels were quantified for up to 180 minutes, during which the topical application of CINC-1 was maintained. In each animal, multiple vessel segments from appropriate vessels were quantified. Videos of migrating cells were constucted for quantitative and mathematical analysis as described above; at the end of certain in vivo experiments, the mesentery was stained with acridine orange (Sigma Aldrich), a nuclear dye, scanned with a 488 nm laser line generated from an Argon laser, and observed by confocal microscopy (LSM5 PASCAL, Axioskop II FS, Carl Zeiss) to verify that migrating cells were neutrophils.
Mathematical Modeling of Continuous Gradients in vivo: The chemokine concentration profile in the mesentery at steady state was predicted using a novel in vivo model based on classical diffusion equations applied on a spherical model of the postcapillary venule, and the assumption that the receptor-dependent transport of the chemokine by the endothelial cells is the main mechanism for generating the gradient the vicinity of postcapillary venules. The steady state solution was calculated for the concentration gradient around a sphere in a homogenous medium, with the two boundary conditions: 1) the concentration far from the sphere is constant, and 2) the chemokine flux across the surface of the sphere also constant. […] Thus, the steady state concentration C at distance r from the capillary wall was calculated as: [formula] […]

Take `Nc1ncnc2c1nc(Br)n2[C@@H]1O[C@@H]2COP(=O)(O)O[C@H]2[C@H]1O` [8-Br-cAMP]: the “sensitivity of T-cell fugetaxis to inhibition, compared with chemotaxis” value in the assay on T-cell was “differentially more sensitive to inhibition”. For the same molecule, in the assay with human neutrophils, the “effect on neutrophil chemotaxis (angular frequency, movement up the gradient)” value is listed as “augmented” and the “effect on neutrophil fugetaxis (angular frequency, movement down the gradient)” value was “selectively inhibited”.
Consider `O=c1c(-c2ccc(O)cc2)coc2cc(O)cc(O)c12` [genistein], for which, in the assay on T-cell, the “sensitivity of T-cell chemotaxis to inhibition, compared with fugetaxis” value is “differentially more sensitive to inhibition”.

B1: CINC-1: rat IL-8 orthologue, cytokine induced neutrophil chemoattractant-1, signals via CXCR2 (protein, UniProt P14095 25-96, looked up)
Growth-regulated alpha protein: APVANELRCQCLQTVAGIHFKNIQSLKVMPPGPHCTQTEVIATLKNGREACLDPEAPMVQKIVQKMLKGVPK
With B1, the “neutrophil response to superfused chemokine” value with rat neutrophils (1 nM) is “minimal neutrophil adhesion to the luminal surface of the venule and transmigration”; in the assay on rat neutrophils (100 nM), “accumulation of neutrophils around the vessel without transmigration”. The “mean chemotropism index (MCI) in vivo” value in the assay with rat neutrophils (diffusive gradient with peak concentration of 10 nM) is given as “+0.32+/−0.06”; in the assay with rat neutrophils (gradient replaced with peak concentration of 100 nM), −0.35+/−0.12. Also, the “peak chemokine concentration at which peak transendothelial migration of neutrophils from the blood occurred” value with rat neutrophils (superfusion at 1 nM, 10 nM or 100 nM for 90 minutes) came out at 10 nM.
